We go through 17 sequences from the DeepSol protein solubility set.

This data set can be described thus: soluble on expression in E. coli; label from the status in PepcDB or PDB records.
Consider “MNPFQKIKSAVNKRQRFFINRTLQRKLTNQGMTVISANCVGAFILHDLHQPFNSPFVNLYLSPQDFLRYLQNIDFYLTQPLTFVQTEKSYPVGKLADLEIHFMHYHSEQEANEKWQLRTSRMKLDNLFIMMTDRDGVTEKDIQLFDQLPFKNKVIFTHKPYPAFKSAYYIKGFEKQNQVGDIFEFSGWNGKKYYDQFDYVKWFNHA”, for which the “soluble on expression in E. coli” value was “not soluble”.

Regarding “MNPIIDGIIALEGGYVFNPKDKGGATHWGITEATARAHGYAGDMRDLTHAEAYAILEEDYWIKPGFDVISTLSWPVSFELCDAAVNIGAYHPSAWLQRWLNVFNHEGKRYPDIHVDGNIGPRTLAALEHYLAWRGQEGEAVLVKALNCSQGTYYLNVAEKNHNNEQFIYGWIKNRVT”, the “soluble on expression in E. coli” value is listed as “soluble”.

Regarding “MNPKFPDSPFLNDLLARLGEVLRQSPAQDFERNLKAGVTSMLTKLDLVSREEFDVQAAVLARTREKLGQLEARLADLEKHERQADEG”, the “soluble on expression in E. coli” value is “not soluble”.

In the case of “MNQEKLDLRKSAADDTHSGAAFAFQALTPDLILDAIESLGVYPETGLLALNSYENRVYQFRSDEGQRYVVKFYRPDRWSDAQIQEEHDFALALAEQEIPMAVPTAVQGHTLHHFQGFRFALFPSIGGRAFEVDNLEQLEFVGRFIGRMHQYGAQSVFQAREPLNPQILGDEPLAWLKQSELVPTSLRVAFFTVVEQVLAKVNTLWAQQRFKPIRLHGDLHPGNILWTPDGPGFVDLDDARMGPAIQDLWMMLTGDRAQQQLQLEVLLEAYEEFCEFDTRQLALIEPLRALRMVHYNAWIGRRWQDPAFPMHFPWFGDEKYWEQQILAFKEQLAALDEPPLSLIPY”, the “soluble on expression in E. coli” value is “not soluble”.

As for “MNQGERNAVSLLKDKLFNEEGKPVNLIFCYTILQMKVAERIMAQHPGERFYVVLMSENRNEKYDYYFNQIKDKAERAYFFYLPYGLNKSFNFIPTMAELKVKSMLLPKVKRIYLASLEKVSIAAFLSTYPDAEIKTFDDGTNNLIRESSYLGGEFAVNGAIKRNFARMMVGDWSIAKTRNASDEHYTIFKGLKNIMDDGRRKMTYLPLFDASELKAGDETGGTVRILLGSPDKEMKEISEKAAKNFNIQYVAPHPRQTYGLSGVTALNSPYVIEDYILREIKKNPHTRYEIYTFFSGAALTMKDFPNVHVYALKPASLPEDYWLKPVYALFRQADIPILAFDDKLEHHHHHH”, the “soluble on expression in E. coli” value is on record as “not soluble”.

In the case of “MNQIWLKVCAASDMQPGTIRRVNRVGAAPLAVYRVGDQFYATEDTCTHGIASLSEGTLDGDVIECPFHGGAFNVCTGMPASSPCTVPLGVFEVEVKEGEVYVAGEKKLEHHHHHH”, the “soluble on expression in E. coli” value is listed as “soluble”.

As for “MNQKDTRKETLEFNKLQKRLRRNVGNAITDYNMIEEGDVVMACISGGKDSFAMLDILLNLQKAAPIKFEVVAVNLDQKQPGFPEHILPEYFETLNIPYYIVDKDTYSVVKEKVPEGKTTCGLCSRLRRGTLYSFAEKIGATKLALGHHMDDIVETMFLNMFHGSRLKAMPPKLRSDDGRNVVIRPLTYCREKDLIKYAEHKDFPIIPCNL”, the “soluble on expression in E. coli” value is recorded as “not soluble”.

Consider “MNQTAAFSEVEMSIVVPKESDIKDVSQLTSVQAPTKVDKNNIEILMSALKKDKKVDVKVDDVASYQEAYDNLKSGKSKAMVLSGSYASLLESVDSNFASNLKTIYTYKIKKKNSNSANPVDSKVFNIYISGIDTYGPISTVSRSDVNIIMTVNMNTHKILLTTTPRDAYVKIPGGGADQYDKLTHAGIYGVETSEQTLEDLYGIKIDYYARINFTSFLKLIDQLGGVTVHNDQAFTQGKFDFPVGDIQMNSEQALGFVRERYNLDGGDNDRGKNQEKVISAILNKLASLKSVSNFTSIVNNLQDSVQTNMSLDTINALANTQLDSGSKFTVTSQAVTGTGSTGQLISYAMPNSSLYMMKLDNSSVASASQAIKNLMEEKLEHHHHHH”, for which the “soluble on expression in E. coli” value is listed as “soluble”.

On to “MNQVEMTEFPVGKPQEALYGVASTPDGALWFTLAKGNAIGRLSPDGAVSRFPLPHADGQPTTITCGPDGRPWFTLSSANAIGRLAPDGALRMFELPRPASRPFGIAGGHDGCLWFAEMAGDRIGRITIDGDIEEYDLPVKGGYPSCMAAGRDGLMWFTLNQAGAVGSISATAAPRIFPLGAADAAPVGIASDAQGALWIAQAGNGAIARFDAGGRITEFPLHSRAARPHAIAADAAGNLWFTEWGANRIGRISEAGDLAGYELAAPGSEPHGIAIDPHGCVWAALETGRLVRLQASPRDLEHHHHHH”, for which the “soluble on expression in E. coli” value is reported as “not soluble”.

Turning to “MNRARDWMRQAERDLEHAQKSLELGHWEWACFAAHQAAEKALKAVYFALGAEAFGHALTHLLAGLHERLNLTPELRRCALVLDRLYIPTRYPDSWEAGAPLDYYGEEEARDALLCAGEILRFGQSVLAGPGETSSGP”, the “soluble on expression in E. coli” value is “soluble”.

In the case of “MNRFIMANSQQCLGCHACEVACVMAHNDERHVLTSQRYQPRITVIKHQHQRSAVTCHHCEDAPCARSCPNGAIAHINDSVQVNAQKCIGCKSCVVACPFGTMQMVLTPVAPNQFKASAHKCDLCQGREQGPACVENCPADALQLVTEDSLTRLAKTRRLRTARQEIRPWHTVDTQHSGAASSKAERMQATPPRGEPDKLAIEARKTTFEEIYLPFRAAQAEREASRCLTCGEHSICEWTCPLHNHIPQWIELVKAGDIDAAVELSHQTNCLPEITGRVCPQDRLCEGACTLRDEYGAVTIGNIERYISDRALSKGWRPDLSDVQKSDKRVAIIGAGPAGLACADVLARHGVSATVYDRHPEIGGLLTFGIPAFKLDKSLLARRREIFSAMGIRFELNCEVGKDISLETLLESYDAVFVGVGTYRSMKADLPNEDAPGVYDALPFLIANTKQVMGLPALPDEPFIDTAGLNVVVLGGGDTAMDCVRTALRHGAANVTCAYRRDEANMPGSKKEVKNAREEGANFEFNVQPVELVLDTHGRASGIRFLRTRLGEPDGQGRRRPVPVPDSEFVMPADAVIMAFGFHPHGMSWLESHGVKVDNWGRIAASVESEFRYQTSNPKIFAGGDAVRGADLVVTAMAEGRHAAQGILDWLAK”, the “soluble on expression in E. coli” value was “not soluble”.

In the case of “MNRHSAGQSTPVRVATLDQLKPGVPTAFDVDGDEVMVVRDGDSVYAISNLCSHAEAYLDMGVFHAESLEIECPLHVGRFDVRTGAPTALPCVLPVRAYDVVVDGTEILVAPKEADHHHHHH”, the “soluble on expression in E. coli” value is given as “soluble”.

Turning to “MNRKGYKSGFVSIIGRPNVGKSTFLNRIIGQKIAIMSDKPQTTRNKIQGVYTENDSQVIFIDTPGIHKPKHKLGDFMVKMAQTTLKEVDIVLFMVNAVEGFGRGEEFIIEKLKETKQPVFLVINKIDQVHPEQLLELIDQYRKLHDFAEIVPISALDGNNAEALIGTIKKYLPEGPQYYPDNQVTDHPERFIIAELIREKVLHLTREEVPHSVAVVIDAIQKREGGAVYINATIVVERPSQKGIIIGKQGKMLKEVGKRARFDIEALLGSKVFLEVWVKVQKDWRNKMSQLRDLGFREDEY”, the “soluble on expression in E. coli” value is given as “not soluble”.

For the sequence “MNRMMALVMAGGRGTRLAIDCEKPLLEVAGRPMIDHVLEALESATGVDGIIVVTSPHTPMTEDHVRGRHPIFRASGGGYVEDLREVLSHLEESYHEPLLVINSDLPLVRPSTIDWIISSYHSCPEPAMCVAVPDDLCRRHGLDFSGSLDGLVPCGVNILMSKNRVQEQRILEASMLELAVNINSCRDLKVLEKILGEIDGREEAHKRGREVLELEHHHHHH”, the “soluble on expression in E. coli” value was “soluble”.

Turning to “MNRNRLPALTPGLAWSRPMNGAVDHKGYEQPTYDLEFAETATEIRRYGPYLVAEVTMAGDRSTAITRGFRVLARYIFGGNAESRRIEMTVPVSQLPAGEDLWTVRFTMPAVRSASLLPAPKDSRIRFVTVPPSRQAVRRFSGWPTDHALRRQAEGLAHWIAERGLPKREGPYFYFYDSPMTLPWQRRNEVAFGLGEGAAALEHHHHHH”, the “soluble on expression in E. coli” value is recorded as “not soluble”.

As to “MNRSLANVILGGYGTTSTAGGKPMEISGTHTEINLDNAIDMIREANSIIITPGYGLCAAKAQYPIADLVKMLTEQGKKVRFGIHPVAGRMPGQLNVLLAEAGVPYDIVLEMDEINHDFPDTDLVLVIGANDTVNSAAQEDPNSIIAGMPVLEVWKSKQVIVMKRSLGVGYAAVDNPIFYKPNTAMLLGDAKKTCDALQAKVRESYQK”, the “soluble on expression in E. coli” value is on record as “soluble”.

For “MNRTIDRSVPKLGVRSTRQRTAVVGVLKDLDYFASAKVIHQELTKRDLKVGLTTVYRTLQSLSEIEAVDVLHMSNGETLYRHCLSDEHHHHLVCTECGRTVEIDGGPVEKWAKEVAQLHGFQVTGHDAEIYGLCESCSAATE”, the “soluble on expression in E. coli” value is “not soluble”.
